Assays:
[1] = target: E. coli malic enzyme-kemptide fusion protein (UniProt P26616)
bovine serum albumin = bovine serum albumin (UniProt P02769)
Sequence of bovine serum albumin (P02769 25-607): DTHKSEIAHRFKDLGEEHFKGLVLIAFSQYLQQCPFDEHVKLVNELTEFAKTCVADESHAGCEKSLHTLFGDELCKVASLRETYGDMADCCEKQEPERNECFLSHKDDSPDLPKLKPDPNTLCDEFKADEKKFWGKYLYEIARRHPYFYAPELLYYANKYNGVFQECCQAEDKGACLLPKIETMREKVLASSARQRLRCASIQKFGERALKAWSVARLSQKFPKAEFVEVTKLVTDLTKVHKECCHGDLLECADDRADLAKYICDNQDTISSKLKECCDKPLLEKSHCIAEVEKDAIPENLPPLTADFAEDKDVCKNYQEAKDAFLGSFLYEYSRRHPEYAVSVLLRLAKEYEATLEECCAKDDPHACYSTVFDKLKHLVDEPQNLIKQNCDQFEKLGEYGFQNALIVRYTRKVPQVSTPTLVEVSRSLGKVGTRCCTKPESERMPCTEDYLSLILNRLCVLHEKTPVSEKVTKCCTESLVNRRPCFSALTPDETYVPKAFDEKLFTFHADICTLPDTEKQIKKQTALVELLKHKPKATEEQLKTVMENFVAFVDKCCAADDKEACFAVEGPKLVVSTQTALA

Sequence of E. coli malic enzyme-kemptide fusion protein (P26616 whole entry, looked up, the tested form may be a part): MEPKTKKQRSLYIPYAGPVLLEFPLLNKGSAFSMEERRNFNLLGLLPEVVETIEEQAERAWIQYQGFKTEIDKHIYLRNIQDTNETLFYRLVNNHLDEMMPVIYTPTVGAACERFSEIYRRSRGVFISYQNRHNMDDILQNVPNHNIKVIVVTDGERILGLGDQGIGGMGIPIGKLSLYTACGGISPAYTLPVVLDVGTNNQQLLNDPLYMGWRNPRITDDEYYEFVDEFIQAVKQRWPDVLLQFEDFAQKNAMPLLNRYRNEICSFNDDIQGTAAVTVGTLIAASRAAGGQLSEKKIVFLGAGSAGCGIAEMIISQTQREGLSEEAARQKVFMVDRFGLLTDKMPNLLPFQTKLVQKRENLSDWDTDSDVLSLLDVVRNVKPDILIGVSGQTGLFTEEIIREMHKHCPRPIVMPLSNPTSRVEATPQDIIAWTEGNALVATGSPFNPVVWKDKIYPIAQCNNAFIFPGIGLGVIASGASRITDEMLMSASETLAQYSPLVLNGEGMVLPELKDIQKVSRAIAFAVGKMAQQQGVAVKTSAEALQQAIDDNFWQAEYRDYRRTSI

**Q.** For cAMP-dependent protein kinase, which “phosphorylation with [gamma-32P]ATP on the biochip after different blocking solutions or none” value [1] is on record?
**A.** The value was “clear spots were observed not only when 1% BSA was treated but also when 1% glycine and 10% glycerol were treated”.

**Q.** And the “phosphorylation with [gamma-32P]ATP on the biochip, X-ray film” value [1]?
**A.** Its value is “spot signals were clearly confirmed on the malic enzyme-kemptide fusion protein or kemptide spot”.

**Q.** What about the “phosphorylation with [gamma-32P]ATP on the biochip, X-ray film” value (bovine serum albumin) of the same substance?
**A.** Its value is “no signal was observed on No. 1 BSA spot selected as a negative control”.

**Q.** And the “phosphorylation with [gamma-32P]ATP on the biochip after different blocking solutions or none” value (kemptide)?
**A.** The value was “clear spots were observed not only when 1% BSA was treated but also when 1% glycine and 10% glycerol were treated”.

**Q.** And the “phosphorylation with [gamma-32P]ATP on the biochip, X-ray film” value (kemptide)?
**A.** Its value is “spot signals were clearly confirmed on the malic enzyme-kemptide fusion protein or kemptide spot”.

**Q.** What about the “phosphorylation with [gamma-32P]ATP on the biochip, X-ray film against image plate (IP)” value (kemptide) of the same substance?
**A.** The value was “signals were clearly detected on IP film even with short sensitization time”.
